Results reported in PMC11829017.

Experiments:
[1] = molecular target: E. coli ρ G150D with the sensor cysteines C84/C405 (X1), untagged (E. coli MG1655) (UniProt P0AG30); experiment: cross-linking; BMOE (0.5 mM) crosslinking of 1 μM purified ρ in PN23 buffer without nucleotide; LDS-PAGE
[2] = molecular target: E. coli ρ G150D with the sensor cysteines C84/C405 (X1), untagged (E. coli MG1655) (UniProt P0AG30); experiment: cross-linking; BMOE (0.5 mM) crosslinking of 1 μM purified untagged ρ in PN23 buffer with ppGpp or pppGpp; LDS-PAGE
[3] = molecular target: E. coli ρ G150D with the sensor cysteines C84/C405 (X1), untagged (E. coli MG1655) (UniProt P0AG30); experiment: cross-linking; BMOE (0.5 mM) crosslinking of 1 μM purified ρ in PN23 buffer with 2 mM ADP, 10 min at room temperature; LDS-PAGE

## E. coli ρ G150D with the sensor cysteines C84/C405 (X1), untagged (from UniProt P0AG30 1-419) (enzyme)
[1]
  percent of ρ in the filament fraction: 18%
[2]
  stoichiometry N: 12
[3]
  percent of ρ in the filament fraction: 56%
